Laboratory results taken from the supplement of paper PMC10567573.
± gives the standard deviation.

Assay: protein stability index of a GFP-peptide fusion (GPS, HEK-293T) (PSI 1-6); higher = more stable
[1] = treatment: DMSO, c terminus: a fixed tail appended
[2] = treatment: MLN4924 1 uM, 8 h, c terminus: a fixed tail appended
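Also: 24-mer peptide tiles fused after GFP, lentivirally expressed, FACS-sorted into six equal bins by GFP/DsRed ratio, decoded by Illumina sequencing, PSI is the read-weighted mean bin number.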

Sequence	protein stability index [1]	protein stability index [2]	protein stability index (treatment: DMSO, c terminus: native)	protein stability index (treatment: MLN4924 1 uM, 8 h, c terminus: native)
QGHPQTGCECEDGPDGQEMDPPNP [GAGE1]	5.39 ± 0.33	5.67 ± 0.14		
ELVPKQPQKRKPQEQLLECNKLCG [SLC2A12]	3.44 ± 0.45	4.18 ± 0.18		
LGNLVEGMDFHRFYFENALSKSNK [CAMK2D]	2.89 ± 0.2	3.23 ± 0.066		
DYDLVLAEDEEMNRMHESMKLFDS [GNAI1]	4.42 ± 0.26	4.84 ± 0.33		
VDPIGHVYIFATCLGLSYDGLLGD [MAGEA6]	3.17 ± 0.45	3.1 ± 0.29		
AFLGPDEAFALPDSLLVVLDMDEG [SPSB4]	2.45 ± 0.39	2.6 ± 0.38		
VEVDAAPAVDLNQVLNETRNQYEA [KRT33B]	4.91 ± 0.29	5.17 ± 0.21		
CDKHSKLFEEPEDPSNRSFFSEII [PPP2R2C]	3.36 ± 0.17	3.57 ± 0.2		
LRHLSPTPSEEHMKNKNNVTEFIL [OR4A15]	3.27 ± 0.18	3.36 ± 0.12		
RVIMIVTDGRPQDSVAEVAAKARD [MATN2]	3.165 ± 0.024	2.76 ± 0.6		
NVVTCAAGILSNLTCNNYKNKMMV [CTNNB1]	2.69 ± 0.41	2.46 ± 0.24		
PYKCPECGKSFSRSSHLVIHERTH [ZNF263]	3.23 ± 0.54	3.28 ± 0.64		
EGHSPGNLPKFCHECGTKYPVEWA [ZC2HC1A]	2.91 ± 0.25	2.97 ± 0.28		
LRTIPSPYPASKADIPSVAFSSRL [DCAF4]	2.79 ± 0.34	2.94 ± 0.35		
VPVKKQKTRTVFSSTQLCVLNDRF [NANOGP8]	2.57 ± 0.23	2.77 ± 0.32		
MAEGDNRSTNLLAAETASLEEQLQ [ARL6IP1]	5.37 ± 0.31	5.43 ± 0.17		
DISETFNHANGLTLVSRAHQLVME [PPP2CA]	2.79 ± 0.12	2.82 ± 0.29		
AHNSNWYITFQSDTDAQQAFILKR [LARP4]	2.38 ± 0.25	2.4 ± 0.55		
SWSAGLHNRYTENSLRGVILDIHF [FUT8]	2.88 ± 0.67	2.86 ± 0.73		
AFSPIVILTERVSLPFKPFAIILP [MIA2]		2.87 ± 0.24		
TCGVCALELGSTEVLLDHLKAHAE [PLAGL1]	2.78 ± 0.46	2.78 ± 0.42		
LDLFGVSMVVPLLSLHVKSLGASP [MFSD9]	2.81 ± 0.62	3.02 ± 0.17		
TKDPDVAFHGLSLGLSLTNGLALG [PSD2]	2.46 ± 0.21	2.43 ± 0.25		

Sequence	protein stability index [1]	protein stability index [2]	protein stability index (treatment: DMSO, c terminus: native)	protein stability index (treatment: MLN4924 1 uM, 8 h, c terminus: native)
DYNPPRVQLSDEMFVFQDGRWVNE [CBY2]	4.48 ± 0.23	4.37 ± 0.36		
MNGEECAEDLRMLDASGEKMNGSH [IKZF1]	5.15 ± 0.39	5.31 ± 0.18		
YAVGGSDGTSPLNTVERYNPQENR [KLHL20]	4.53 ± 0.33	4.79 ± 0.28		
ETAAGKGKGEARARLKRSQSFGVA [SMTNL2]	4.39 ± 0.18	4.71 ± 0.12		
RAKCRNMEHALREKAKAFWAMRRS [TRIM35]	2.09 ± 0.36	2.3 ± 0.34		
DIIRKQVLGTKVDAERDGVKVPTT [CDC34]	4.2 ± 0.34	4.23 ± 0.17		
AEEYDEKTSELLVRKWRVKSALGA [DPCD]	3.34 ± 0.36	4.04 ± 0.29		
DPDFKDLGALKPLPACEFEMGGSE [NETO1]	5.24 ± 0.22	5.27 ± 0.2		
KPPQNPVDTYDVQVTAPGAPPLQA [TNXB]	4.84 ± 0.35	4.46 ± 0.3		
KERDLRDVGDWRKNIEEKSGMEGR [TNNI2]	5.07 ± 0.25	5.15 ± 0.3		
PAPALAPDQLPQNNTLVALPIVAI [FBXO28]	2.91 ± 0.23	2.68 ± 0.33		
APTKPHDYRQEQPETFWIQRAPQL [SPAG8]	3.61 ± 0.11	3.73 ± 0.19		
VKDEAHQAQKDPKKDRPLARRKSE [PPP2R5C]	5.55 ± 0.25	5.43 ± 0.22		
TDRGNDNWLIKYDCPMDSSSSRDT [PI4K2A]	4.44 ± 0.2	4.42 ± 0.075		
DKELLCCSCQADPRHQGHRVQPVK [TRIM35]	3.56 ± 0.32	4.06 ± 0.3		
VAWNGPRMGDADYLAAWHRLVLPI [HDAC6]	2.52 ± 0.52	2.26 ± 0.25		
TKELDQWIEQLNECKQLSESQVKS [PPP2CA]	4.71 ± 0.094	4.69 ± 0.12		
GFYFEVCGMMVESVNAKTLMSRI [PCDHGA10]			2.81 ± 0.26	2.41 ± 1
SEGTNLNAPNSLGVSALCAICGDR [HNF4A]	3.88 ± 0.28	4.13 ± 0.26		
ALPSVMRFCCCVAVIYLGYCFCGW [MCOLN1]	2.76 ± 0.59	2.83 ± 0.31		
DPLSDSDSMTSQAKPEALSSPKFR [ELOA2]	5.2 ± 0.23	5.27 ± 0.17		
EEIKKLTTDPDLILEVLRSSPMVQ [LARP4]	2.39 ± 0.7	2.64 ± 0.64		
